Results on 18 molecules are retold here after patent publication US20110091971A1, “Differentiation of Pluripotent Stem Cells” (priority 2008, published 2011).

Substitutions are numbered along the chain they refer to.

The chains are these.
B1: ACTN14: activin A variant peptide, SEQ ID 15 (protein)
chain: GLECDGKVNLCCKKQHFVSFKDIGWNDWIIAPSGYHANRCDGLCPSHIAGTSGSSLSFHSTVINHYRMRGHSPFAQMGSCCVPTKLRPMSMLYYDDGQNIIKKDIQNMIVEECGCS
B2: ACTN7: activin A variant peptide, SEQ ID 8 (protein)
chain: B1 chain with L10Y, R39S, D41S, A75S, V82I
B3: ACTN12: activin A variant peptide, SEQ ID 13 (protein)
chain: B1 chain with L10Y, H16N, R39E, D41S, A75S, V82I
B4: ACTN8: activin A variant peptide, SEQ ID 9 (protein)
chain: B1 chain with L10Y, H16D, R39K, D41S, L43K, A75S, Q76D
B5: ACTN11: activin A variant peptide, SEQ ID 12 (protein)
chain: B1 chain with H16L, R39H, D41S, S79A, V82I
B6: ACTN9: activin A variant peptide, SEQ ID 10 (protein)
chain: B1 chain with L10Y, H16D, R39K, D41T, L43K, Q76D, M77L, S79A, V82I
B7: ACTN17: activin A variant peptide, SEQ ID 18 (protein)
chain: B1 chain with L10Y, H16D, R39K, D41G, L43K, A75S, Q76D, S79A
B8: ACTN10: activin A variant peptide, SEQ ID 11 (protein)
chain: B1 chain with L10Y, H16D, D41S, V82I
B9: ACTN49: activin A variant peptide, SEQ ID 50 (protein)
chain: B1 chain with H16D, A75S, Q76D
B10: ACTN50: activin A variant peptide, SEQ ID 51 (protein)
chain: GLECDGKVNICCKKQLFGRTKDIGWNDWIIAPSGYHGGGCSGECPSHIAGTSGSSLSFHSTVINHYRMRGHSPVANLKSCCSPTKLRPMSMLYYDDGQNIIKKDIQNMKVEECGCT
B11: ACTN91: activin A variant peptide, SEQ ID 92 (protein)
chain: B10 chain with L16S, V74W, K109V
B12: ACTN65: activin A variant peptide, SEQ ID 66 (protein)
chain: B10 chain with L16S, R19Q, G39S, V74F, N107G
B13: ACTN94: activin A variant peptide, SEQ ID 95 (protein)
chain: B10 chain with L16S, R19Q, T20A, S41T, V74W, N107R, K109V, V110A
B14: ACTN77: activin A variant peptide, SEQ ID 78 (protein)
chain: B10 chain with L16M, R19K, T20A, S41T, V74W, K109V
B15: ACTN69: activin A variant peptide, SEQ ID 70 (protein)
chain: B10 chain with L16S, R19K, S41T, V74F, N107Q, K109V
B16: ACTN51: activin A variant peptide, SEQ ID 52 (protein)
chain: B10 chain with L16S, R19Q, V74F, N107R, K109V
B17: ACTN56: activin A variant peptide, SEQ ID 57 (protein)
chain: B10 chain with L16S, R19Q, T20A, G39S, S41T, V74F, S82A, K109V, T116V
B18: ACTN81: activin A variant peptide, SEQ ID 82 (protein)
chain: B10 chain with R19K, S41T, N107R, K109V

One assay deals with H1 or H9 human embryonic stem cells. Kind of assay: Activin A bioassay: differentiation of human embryonic stem cells to definitive endoderm, cell number and SOX17 intensity by high content analysis (96-well, four days).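 As to Cell Number average: Raw total cell count per well from high content imaging.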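 As to Sox 17 Intensity average: total fluorescence of the cell multiplied by cell area.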 It is filed as cell-based. Particulars: supernatant concentration 1x, assay dilution 1:20. An outline of the steps:
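Read-out was cell count and integrated SOX17 immunofluorescence by high-content imaging, with each well divided by the mean of the 100 ng/ml activin A control. Over the four-day culture, test samples were given in DMEM:F12 with 0.5% FCS plus 20 ng/ml Wnt3a for the first two days and in 2% FCS alone for the last two. Cells were H1 or H9 hESC clusters grown on Matrigel.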
As to B1, the “Cell Number average” value was determined as 4968 and the “Sox 17 Intensity average” value is 1.50E+06.

B2: the “Cell Number average” value worked out at 1133 and the “Sox 17 Intensity average” value is on record as 1.108E+07.

With B3, the “Cell Number average” value is reported as 5420 and the “Sox 17 Intensity average” value came to 1.10E+06.

For B4, the “Cell Number average” value is on record as 363 and the “Sox 17 Intensity average” value is given as 5.578E+06.

For B5, the “Cell Number average” value is on record as 5239 and the “Sox 17 Intensity average” value is given as 3.47E+06.

Regarding B6, the “Cell Number average” value is given as 11391 and the “Sox 17 Intensity average” value was determined as 5.97E+05.

Consider B7, for which the “Cell Number average” value was determined as 10154 and the “Sox 17 Intensity average” value is listed as 1.21E+06.

As to B8, the “Cell Number average” value is listed as 7417 and the “Sox 17 Intensity average” value was found to be 7.52E+05.

Still in this assay, the particulars now being: supernatant concentration 1x, assay dilution 1:20; control = R&D Sys Activin A 100 ng/ml on same plate.
For B1, the “Sox 17 Intensity % of control” value is 5.8%.

In the case of B2, the “Sox 17 Intensity % of control” value worked out at 6.0%.

For the molecule B3, the “Sox 17 Intensity % of control” value came to 4.3%.

With B4, the “Sox 17 Intensity % of control” value was 3.0%.

Take B5: the “Sox 17 Intensity % of control” value is 13.4%.

Consider B6, for which the “Sox 17 Intensity % of control” value came to 2.3%.

In the case of B7, the “Sox 17 Intensity % of control” value is given as 4.7%.

For B8, the “Sox 17 Intensity % of control” value is recorded as 2.9%.

The same assay, now with this note: supernatant concentration 10x, assay dilution 1:20.
Regarding B1, the “Cell Number average” value was determined as 6278 and the “Sox 17 Intensity average” value turned out to be 3.66E+06.

In the case of B2, the “Cell Number average” value is on record as 2714 and the “Sox 17 Intensity average” value is 1.904E+07.

Consider B3, for which the “Cell Number average” value was determined as 6633 and the “Sox 17 Intensity average” value was 7.65E+06.

As for B4, the “Cell Number average” value is recorded as 1419 and the “Sox 17 Intensity average” value is listed as 1.181E+07.

Consider B5, for which the “Cell Number average” value is given as 10321 and the “Sox 17 Intensity average” value stood at 4.06E+07.

As for B6, the “Cell Number average” value is reported as 11456 and the “Sox 17 Intensity average” value turned out to be 6.63E+05.

B7: the “Cell Number average” value is 12596 and the “Sox 17 Intensity average” value is recorded as 2.83E+05.

For the molecule B8, the “Cell Number average” value came out at 8942 and the “Sox 17 Intensity average” value is recorded as 1.08E+06.

The same assay, now with this note: supernatant concentration 10x, assay dilution 1:20; assay plates #007, #009, #010.
For B9, the “Cell Number average” value is 10076 and the “Sox 17 Intensity average” value was 1.60E+07.

In the case of B10, the “Cell Number average” value is recorded as 22171 and the “Sox 17 Intensity average” value is 1.72E+07.

Regarding B11, the “Cell Number average” value was determined as 17043 and the “Sox 17 Intensity average” value was 1.12E+07.

Regarding B12, the “Cell Number average” value amounted to 22058 and the “Sox 17 Intensity average” value came to 3.23E+07.

B13: the “Cell Number average” value stood at 20142 and the “Sox 17 Intensity average” value is recorded as 1.51E+07.

Take B14: the “Cell Number average” value turned out to be 17696 and the “Sox 17 Intensity average” value came out at 2.82E+07.

Consider B15, for which the “Cell Number average” value came out at 20178 and the “Sox 17 Intensity average” value amounted to 2.73E+07.

In the case of B16, the “Cell Number average” value is 21780 and the “Sox 17 Intensity average” value amounted to 1.85E+07.

As to B17, the “Cell Number average” value was found to be 23413 and the “Sox 17 Intensity average” value is 2.79E+07.

Take B18: the “Cell Number average” value came out at 19897 and the “Sox 17 Intensity average” value was 1.60E+07.

Staying with this assay, now noted: supernatant concentration 10x, assay dilution 1:20; control = R&D Sys Activin A 100 ng/ml on same plate.
With B9, the “Sox 17 Intensity % of control” value is given as 11.3%.

As for B1, the “Sox 17 Intensity % of control” value is on record as 14.1%.

B2: the “Sox 17 Intensity % of control” value amounted to 10.4%.

For the molecule B3, the “Sox 17 Intensity % of control” value was found to be 29.6%.

In the case of B4, the “Sox 17 Intensity % of control” value worked out at 6.4%.

Take B5: the “Sox 17 Intensity % of control” value turned out to be 156.8%.

As to B6, the “Sox 17 Intensity % of control” value was 2.6%.

As to B7, the “Sox 17 Intensity % of control” value stood at 1.1%.

As for B8, the “Sox 17 Intensity % of control” value was found to be 4.2%.

On to B10, for which the “Sox 17 Intensity % of control” value came to 12.2%.

On to B11, for which the “Sox 17 Intensity % of control” value worked out at 7.9%.

Consider B12, for which the “Sox 17 Intensity % of control” value amounted to 22.9%.

For B13, the “Sox 17 Intensity % of control” value is on record as 10.7%.

For the molecule B14, the “Sox 17 Intensity % of control” value was found to be 20.0%.

Regarding B15, the “Sox 17 Intensity % of control” value was determined as 19.4%.

B16: the “Sox 17 Intensity % of control” value worked out at 13.1%.

As to B17, the “Sox 17 Intensity % of control” value was determined as 19.8%.

Consider B18, for which the “Sox 17 Intensity % of control” value amounted to 11.4%.

The assay is the same for the next values; noted with them: supernatant concentration 10x, assay dilution 1:40.
B1: the “Cell Number average” value was determined as 5584 and the “Sox 17 Intensity average” value stood at 4.73E+06.

Take B2: the “Cell Number average” value is 1387 and the “Sox 17 Intensity average” value came out at 1.099E+07.

On to B3, for which the “Cell Number average” value was found to be 6317 and the “Sox 17 Intensity average” value is recorded as 2.43E+06.

As for B4, the “Cell Number average” value came to 372 and the “Sox 17 Intensity average” value worked out at 3.869E+06.

In the case of B5, the “Cell Number average” value came to 9493 and the “Sox 17 Intensity average” value was 2.79E+07.

For the molecule B6, the “Cell Number average” value is 9608 and the “Sox 17 Intensity average” value was determined as 4.19E+05.

For B7, the “Cell Number average” value is 10807 and the “Sox 17 Intensity average” value was found to be 4.38E+05.

For B8, the “Cell Number average” value stood at 7333 and the “Sox 17 Intensity average” value turned out to be 5.59E+05.

The same assay, now with this note: supernatant concentration 10x, assay dilution 1:40; control = R&D Sys Activin A 100 ng/ml on same plate.
For the molecule B1, the “Sox 17 Intensity % of control” value was determined as 18.3%.

As to B2, the “Sox 17 Intensity % of control” value was determined as 6.0%.

Consider B3, for which the “Sox 17 Intensity % of control” value was 9.4%.

In the case of B4, the “Sox 17 Intensity % of control” value came to 2.1%.

For B5, the “Sox 17 Intensity % of control” value turned out to be 107.8%.

Consider B6, for which the “Sox 17 Intensity % of control” value is given as 1.6%.

For B7, the “Sox 17 Intensity % of control” value amounted to 1.7%.

Turning to B8, the “Sox 17 Intensity % of control” value is 2.2%.
